Molecular target: RQR8
Assay: cell-based or functional assay

Chain of RQR8 (chain, as listed by the source limits assumed): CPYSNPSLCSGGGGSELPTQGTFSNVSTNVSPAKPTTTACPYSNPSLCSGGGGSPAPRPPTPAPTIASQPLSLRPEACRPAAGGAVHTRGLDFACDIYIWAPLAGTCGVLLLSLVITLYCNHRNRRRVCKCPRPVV

In the case of rituximab (antibody), the complement-dependent cytotoxicity (CDC): CAR+ cells eliminated, RTX 100 µg/ml with baby rabbit complement, 2 hours is reported as 85%.

Source: patent US20240189354A1
